Test results: doi:10.1101/2023.03.17.532973 (bioRxiv, 2023)

T1: SHMT1 (cytosolic serine hydroxymethyltransferase) WT (Homo sapiens, UniProt P34896 1-483)
T1 sequence: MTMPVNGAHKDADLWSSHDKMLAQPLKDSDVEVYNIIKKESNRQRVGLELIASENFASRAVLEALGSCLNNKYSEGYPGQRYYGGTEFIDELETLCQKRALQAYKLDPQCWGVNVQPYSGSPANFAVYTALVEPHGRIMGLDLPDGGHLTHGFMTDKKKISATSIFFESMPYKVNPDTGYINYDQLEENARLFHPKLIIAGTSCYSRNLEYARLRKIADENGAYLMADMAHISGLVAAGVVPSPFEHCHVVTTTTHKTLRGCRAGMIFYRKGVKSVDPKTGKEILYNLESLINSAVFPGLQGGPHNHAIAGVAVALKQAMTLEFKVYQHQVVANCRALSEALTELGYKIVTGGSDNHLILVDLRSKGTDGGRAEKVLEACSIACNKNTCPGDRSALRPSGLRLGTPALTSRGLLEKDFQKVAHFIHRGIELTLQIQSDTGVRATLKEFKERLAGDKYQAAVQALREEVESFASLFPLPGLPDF

B1: human cytosolic serine hydroxymethyltransferase (SHMT1), wild type (enzyme)
chain: DADLWSSHDKMLAQPLKDSDVEVYNIIKKESNRQRVGLELIASENFASRAVLEALGSCLNNKYSEGYPGQRYYGGTEFIDELETLCQKRALQAYKLDPQCWGVNVQPYSGSPANFAVYTALVEPHGRIMGLDLPDGGHLTHGFMTDKKKISATSIFFESMPYKVNPDTGYINYDQLEENARLFHPKLIIAGTSCYSRNLEYARLRKIADENGAYLMADMAHISGLVAAGVVPSPFEHCHVVTTTTHKTLRGCRAGMIFYRKGVKSVDPKTGKEILYNLESLINSAVFPGLQGGPHNHAIAGVAVALKQAMTLEFKVYQHQVVANCRALSEALTELGYKIVTGGSDNHLILVDLRSKGTDGGRAEKVLEACSIACNKNTCPGDRSALRPSGLRLGTPALTSRGLLEKDFQKVAHFIHRGIELTLQIQSDTGVRATLKEFKERLAGDKYQAAVQALREEVESFASLFPLPGL
B2: UTR2 1-50 Rv (reverse complement) (structured_RNA)
RNA: UGUGGCCUUUUGGGAAUUGUAGUUCGCCCACUCACCGCUUUUUUCUUUAU

Columns and labels:
[1] = target: the molecule itself; test: cryo-EM structure
[2] = target: T1, SHMT1 (cytosolic serine …); test: EMSA

| Binder | stoichiometry N [1] | binding result [2] |
| --- | --- | --- |
| B1 | 4 |  |
| B2 |  | binds |
